These substances were tested against human β-Klotho extracellular domain (aa1–992) fused with a 6 × His tag at the C-terminus (UniProt Q86Z14) (assay: solid-phase binding assay). Conditions: parent: est. 1.0; read off a plot.
Sequence of human β-Klotho extracellular domain (aa1–992) fused with a 6 × His tag at the C-terminus (Q86Z14 53-992): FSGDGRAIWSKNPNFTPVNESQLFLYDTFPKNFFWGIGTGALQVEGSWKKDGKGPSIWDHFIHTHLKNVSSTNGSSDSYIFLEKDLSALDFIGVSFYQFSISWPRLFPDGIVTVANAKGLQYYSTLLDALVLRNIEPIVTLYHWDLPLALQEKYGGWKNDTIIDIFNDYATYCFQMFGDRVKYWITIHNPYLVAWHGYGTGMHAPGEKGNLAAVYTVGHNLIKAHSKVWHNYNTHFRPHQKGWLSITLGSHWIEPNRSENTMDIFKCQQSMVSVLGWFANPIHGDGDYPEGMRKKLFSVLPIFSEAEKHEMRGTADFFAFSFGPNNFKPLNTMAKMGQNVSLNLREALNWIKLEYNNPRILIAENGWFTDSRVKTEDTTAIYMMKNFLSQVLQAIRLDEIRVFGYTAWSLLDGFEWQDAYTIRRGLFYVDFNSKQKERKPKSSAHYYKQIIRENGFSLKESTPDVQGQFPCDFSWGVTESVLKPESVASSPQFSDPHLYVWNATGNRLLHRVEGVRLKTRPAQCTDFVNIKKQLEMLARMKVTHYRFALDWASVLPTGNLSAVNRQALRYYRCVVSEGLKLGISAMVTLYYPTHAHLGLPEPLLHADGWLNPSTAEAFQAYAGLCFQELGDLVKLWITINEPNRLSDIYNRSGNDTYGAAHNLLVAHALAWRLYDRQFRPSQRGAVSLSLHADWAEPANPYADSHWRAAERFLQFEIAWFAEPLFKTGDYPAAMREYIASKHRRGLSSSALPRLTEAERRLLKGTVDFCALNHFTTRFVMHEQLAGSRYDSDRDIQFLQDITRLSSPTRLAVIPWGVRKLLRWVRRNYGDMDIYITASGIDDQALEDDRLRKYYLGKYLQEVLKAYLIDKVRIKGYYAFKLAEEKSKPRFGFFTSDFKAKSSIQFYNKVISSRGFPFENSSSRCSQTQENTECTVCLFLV

Sequence of mature human FGF21 polypeptide fused with the human Fc fragment at the N-terminus (Fc-FGF21), wild type (from UniProt Q9NSA1) 166P-R (Q9NSA1 29-209, change not shown): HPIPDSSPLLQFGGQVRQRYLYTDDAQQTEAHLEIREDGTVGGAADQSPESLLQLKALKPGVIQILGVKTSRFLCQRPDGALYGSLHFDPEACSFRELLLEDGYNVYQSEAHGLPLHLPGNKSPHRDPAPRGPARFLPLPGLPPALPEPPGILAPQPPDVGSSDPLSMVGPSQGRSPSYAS
Sequence of mature human FGF21 polypeptide fused with the human Fc fragment at the N-terminus (Fc-FGF21), wild type (from UniProt Q9NSA1) 168P-R (Q9NSA1 29-209, change not shown): as above
Sequence of mature human FGF21 polypeptide fused with the human Fc fragment at the N-terminus (Fc-FGF21), wild type (from UniProt Q9NSA1) 179G-R (Q9NSA1 29-209, change not shown): as above
Sequence of mature human FGF21 polypeptide fused with the human Fc fragment at the N-terminus (Fc-FGF21), wild type (from UniProt Q9NSA1) 176E-R (Q9NSA1 29-209, change not shown): as above
Sequence of mature human FGF21 polypeptide fused with the human Fc fragment at the N-terminus (Fc-FGF21), wild type (from UniProt Q9NSA1) 183P-A (Q9NSA1 29-209, change not shown): as above
Sequence of mature human FGF21 polypeptide fused with the human Fc fragment at the N-terminus (Fc-FGF21), wild type (from UniProt Q9NSA1) 176E-A (Q9NSA1 29-209, change not shown): as above
Sequence of mature human FGF21 polypeptide fused with the human Fc fragment at the N-terminus (Fc-FGF21), wild type (from UniProt Q9NSA1) 182A-R (Q9NSA1 29-209, change not shown): as above
Sequence of mature human FGF21 polypeptide fused with the human Fc fragment at the N-terminus (Fc-FGF21), wild type (from UniProt Q9NSA1) 179G-A (Q9NSA1 29-209, change not shown): as above
Sequence of mature human FGF21 polypeptide fused with the human Fc fragment at the N-terminus (Fc-FGF21), wild type (from UniProt Q9NSA1) 165L-A (Q9NSA1 29-209, change not shown): as above
Sequence of mature human FGF21 polypeptide fused with the human Fc fragment at the N-terminus (Fc-FGF21), wild type (from UniProt Q9NSA1) 185P-A (Q9NSA1 29-209, change not shown): as above
Sequence of mature human FGF21 polypeptide fused with the human Fc fragment at the N-terminus (Fc-FGF21), wild type (from UniProt Q9NSA1) 164F-R (Q9NSA1 29-209, change not shown): as above
Sequence of mature human FGF21 polypeptide fused with the human Fc fragment at the N-terminus (Fc-FGF21), wild type (from UniProt Q9NSA1) 166P-A (Q9NSA1 29-209, change not shown): as above
Sequence of mature human FGF21 polypeptide fused with the human Fc fragment at the N-terminus (Fc-FGF21), wild type (from UniProt Q9NSA1) 186P-A (Q9NSA1 29-209, change not shown): as above
Sequence of mature human FGF21 polypeptide fused with the human Fc fragment at the N-terminus (Fc-FGF21), wild type (from UniProt Q9NSA1) 175P-A (Q9NSA1 29-209, change not shown): as above
Sequence of mature human FGF21 polypeptide fused with the human Fc fragment at the N-terminus (Fc-FGF21), wild type (from UniProt Q9NSA1) 177P-R (Q9NSA1 29-209, change not shown): as above
Sequence of mature human FGF21 polypeptide fused with the human Fc fragment at the N-terminus (Fc-FGF21), wild type (from UniProt Q9NSA1) 170L-R (Q9NSA1 29-209, change not shown): as above
Sequence of mature human FGF21 polypeptide fused with the human Fc fragment at the N-terminus (Fc-FGF21), wild type (from UniProt Q9NSA1) 187D-A (Q9NSA1 29-209, change not shown): as above
Sequence of mature human FGF21 polypeptide fused with the human Fc fragment at the N-terminus (Fc-FGF21), wild type (from UniProt Q9NSA1) 175P-R (Q9NSA1 29-209, change not shown): as above
Sequence of mature human FGF21 polypeptide fused with the human Fc fragment at the N-terminus (Fc-FGF21), wild type (from UniProt Q9NSA1) 171P-R (Q9NSA1 29-209, change not shown): as above
Sequence of mature human FGF21 polypeptide fused with the human Fc fragment at the N-terminus (Fc-FGF21), wild type (from UniProt Q9NSA1) 167L-R (Q9NSA1 29-209, change not shown): as above

| ratio to parent | Substance |
| --- | --- |
| 3 | mature human FGF21 polypeptide fused with the human Fc fragment at the N-terminus (Fc-FGF21), wild type (from UniProt Q9NSA1) 164F-R |
| 0.4 | mature human FGF21 polypeptide fused with the human Fc fragment at the N-terminus (Fc-FGF21), wild type (from UniProt Q9NSA1) 167L-A |
| 0.5 | mature human FGF21 polypeptide fused with the human Fc fragment at the N-terminus (Fc-FGF21), wild type (from UniProt Q9NSA1) 168P-A |
| 1.2 | mature human FGF21 polypeptide fused with the human Fc fragment at the N-terminus (Fc-FGF21), wild type (from UniProt Q9NSA1) 168P-R |
| 0.9 | mature human FGF21 polypeptide fused with the human Fc fragment at the N-terminus (Fc-FGF21), wild type (from UniProt Q9NSA1) 169G-A |
| 1 | mature human FGF21 polypeptide fused with the human Fc fragment at the N-terminus (Fc-FGF21), wild type (from UniProt Q9NSA1) 170L-R |
| 1.2 | mature human FGF21 polypeptide fused with the human Fc fragment at the N-terminus (Fc-FGF21), wild type (from UniProt Q9NSA1) 171P-A |
| 0.5 | mature human FGF21 polypeptide fused with the human Fc fragment at the N-terminus (Fc-FGF21), wild type (from UniProt Q9NSA1) 172P-A |
| 0.6 | mature human FGF21 polypeptide fused with the human Fc fragment at the N-terminus (Fc-FGF21), wild type (from UniProt Q9NSA1) 174P-A |
| 1.4 | mature human FGF21 polypeptide fused with the human Fc fragment at the N-terminus (Fc-FGF21), wild type (from UniProt Q9NSA1) 175P-R |
| 0.5 | mature human FGF21 polypeptide fused with the human Fc fragment at the N-terminus (Fc-FGF21), wild type (from UniProt Q9NSA1) 176E-A |
| 0.7 | mature human FGF21 polypeptide fused with the human Fc fragment at the N-terminus (Fc-FGF21), wild type (from UniProt Q9NSA1) 178P-A |
| 1.2 | mature human FGF21 polypeptide fused with the human Fc fragment at the N-terminus (Fc-FGF21), wild type (from UniProt Q9NSA1) 178P-R |
| 1 | mature human FGF21 polypeptide fused with the human Fc fragment at the N-terminus (Fc-FGF21), wild type (from UniProt Q9NSA1) 179G-R |
| 0.6 | mature human FGF21 polypeptide fused with the human Fc fragment at the N-terminus (Fc-FGF21), wild type (from UniProt Q9NSA1) 180I-A |
| 2.3 | mature human FGF21 polypeptide fused with the human Fc fragment at the N-terminus (Fc-FGF21), wild type (from UniProt Q9NSA1) 180I-R |
| 0.5 | mature human FGF21 polypeptide fused with the human Fc fragment at the N-terminus (Fc-FGF21), wild type (from UniProt Q9NSA1) 181L-A |
| 1.2 | mature human FGF21 polypeptide fused with the human Fc fragment at the N-terminus (Fc-FGF21), wild type (from UniProt Q9NSA1) 184Q-A |
| 1.8 | mature human FGF21 polypeptide fused with the human Fc fragment at the N-terminus (Fc-FGF21), wild type (from UniProt Q9NSA1) 184Q-R |
| 1.3 | mature human FGF21 polypeptide fused with the human Fc fragment at the N-terminus (Fc-FGF21), wild type (from UniProt Q9NSA1) 185P-A |
| 1.6 | mature human FGF21 polypeptide fused with the human Fc fragment at the N-terminus (Fc-FGF21), wild type (from UniProt Q9NSA1) 185P-R |
| 12 | mature human FGF21 polypeptide fused with the human Fc fragment at the N-terminus (Fc-FGF21), wild type (from UniProt Q9NSA1) 186P-A |

Further lines, the substance ahead of its results:

| Substance | ratio to parent |
| --- | --- |
| mature human FGF21 polypeptide fused with the human Fc fragment at the N-terminus (Fc-FGF21), wild type (from UniProt Q9NSA1) 163R-A | 0.9 |
| mature human FGF21 polypeptide fused with the human Fc fragment at the N-terminus (Fc-FGF21), wild type (from UniProt Q9NSA1) 164F-A | 0.8 |
| mature human FGF21 polypeptide fused with the human Fc fragment at the N-terminus (Fc-FGF21), wild type (from UniProt Q9NSA1) 165L-A | 1 |
| mature human FGF21 polypeptide fused with the human Fc fragment at the N-terminus (Fc-FGF21), wild type (from UniProt Q9NSA1) 166P-A | 0.6 |
| mature human FGF21 polypeptide fused with the human Fc fragment at the N-terminus (Fc-FGF21), wild type (from UniProt Q9NSA1) 166P-R | 2.6 |
| mature human FGF21 polypeptide fused with the human Fc fragment at the N-terminus (Fc-FGF21), wild type (from UniProt Q9NSA1) 167L-R | 1 |
| mature human FGF21 polypeptide fused with the human Fc fragment at the N-terminus (Fc-FGF21), wild type (from UniProt Q9NSA1) 169G-R | 2.2 |
| mature human FGF21 polypeptide fused with the human Fc fragment at the N-terminus (Fc-FGF21), wild type (from UniProt Q9NSA1) 170L-A | 1 |
| mature human FGF21 polypeptide fused with the human Fc fragment at the N-terminus (Fc-FGF21), wild type (from UniProt Q9NSA1) 171P-R | 1.2 |
| mature human FGF21 polypeptide fused with the human Fc fragment at the N-terminus (Fc-FGF21), wild type (from UniProt Q9NSA1) 172P-R | 1.5 |
| mature human FGF21 polypeptide fused with the human Fc fragment at the N-terminus (Fc-FGF21), wild type (from UniProt Q9NSA1) 173A-R | 0.6 |
| mature human FGF21 polypeptide fused with the human Fc fragment at the N-terminus (Fc-FGF21), wild type (from UniProt Q9NSA1) 174P-R | 1.3 |
| mature human FGF21 polypeptide fused with the human Fc fragment at the N-terminus (Fc-FGF21), wild type (from UniProt Q9NSA1) 175P-A | 0.5 |
| mature human FGF21 polypeptide fused with the human Fc fragment at the N-terminus (Fc-FGF21), wild type (from UniProt Q9NSA1) 176E-R | 1.6 |
| mature human FGF21 polypeptide fused with the human Fc fragment at the N-terminus (Fc-FGF21), wild type (from UniProt Q9NSA1) 177P-A | 1 |
| mature human FGF21 polypeptide fused with the human Fc fragment at the N-terminus (Fc-FGF21), wild type (from UniProt Q9NSA1) 177P-R | 1.2 |
| mature human FGF21 polypeptide fused with the human Fc fragment at the N-terminus (Fc-FGF21), wild type (from UniProt Q9NSA1) 179G-A | 1.3 |
| mature human FGF21 polypeptide fused with the human Fc fragment at the N-terminus (Fc-FGF21), wild type (from UniProt Q9NSA1) 181L-R | 1.2 |
| mature human FGF21 polypeptide fused with the human Fc fragment at the N-terminus (Fc-FGF21), wild type (from UniProt Q9NSA1) 182A-R | 1.4 |
| mature human FGF21 polypeptide fused with the human Fc fragment at the N-terminus (Fc-FGF21), wild type (from UniProt Q9NSA1) 183P-A | 0.8 |
| mature human FGF21 polypeptide fused with the human Fc fragment at the N-terminus (Fc-FGF21), wild type (from UniProt Q9NSA1) 183P-R | 1 |
| mature human FGF21 polypeptide fused with the human Fc fragment at the N-terminus (Fc-FGF21), wild type (from UniProt Q9NSA1) 187D-A | 14 |
| mature human FGF21 polypeptide fused with the human Fc fragment at the N-terminus (Fc-FGF21), wild type (from UniProt Q9NSA1) 187D-R | 6 |
